From publication PMC5737217 (Nucleic Acids Research, 2017)
Residue numbers refer to the chain shown, from its start. Numbers in names are those of the source.

B1: 1C_GAS (dsDNA)
DNA 1: GCTGCCACTAGAGTTTTTTCGGGAAAAGATCATCAAGAGCACACGGG
DNA 2: CCCGTGTGCTCTTGATGATCTTTTCCCGAAAAAACTCTAGTGGCAGC
B2: 2T_GAS (dsDNA)
DNA 1: B1 DNA 1 with T18C, T19C, C20T, G21A
DNA 2: B1 DNA 2 with C27T, G28A, A29G, A30G
B3: 0T_GAS (dsDNA)
DNA 1: B1 DNA 1 with C20T, G21A
DNA 2: B1 DNA 2 with C27T, G28A
B4: 1T_GAS (dsDNA)
DNA 1: B1 DNA 1 with T19C, C20T, G21A
DNA 2: B1 DNA 2 with C27T, G28A, A29G
B5: 3C_GAS (dsDNA)
DNA 1: B1 DNA 1 with T18C, T19C
DNA 2: B1 DNA 2 with A29G, A30G
B6: tSTATcc (truncated STAT1α, amino acids 132–713, with A656C and N658C) (domain or fragment, UniProt P42224 132-713, looked up)
chain: STVMLDKQKELDSKVRNVKDKVMCIEHEIKSLEDLQDEYDFKCKTLQNREHETNGVAKSDQKQEQLLLKKMYLMLDNKRKEVVHKIIELLNVTELTQNALINDELVEWKRRQQSACIGGPPNACLDQLQNWFTIVAESLQQVRQQLKKLEELEQKYTYEHDPITKNKQVLWDRTFSLFQQLIQSSFVVERQPCMPTHPQRPLVLKTGVQFTVKLRLLVKLQELNYNLKVKVLFDKDVNERNTVKGFRKFNILGTHTKVMNMEESTNGSLAAEFRHLQLKEQKNAGTRTNEGPLIVTEELHSLSFETQLCQPGLVIDLETTSLPVVVISNVSQLPSGWASILWYNMLVAEPRNLSFFLTPPCARWAQLSEVLSWQFSSVTKRGLNVDQLNMLGEKLLGPNASPDGLIPWTRFCKENINDKNFPFWLWIESILELIKKHLLPLWNDGCIMGFISKERERALLKDQQPGTFLLRFSESSREGAITFTWVERSQNGGEPDFHAVEPYTKKELSAVTFPDIIRNYKVMACECIPENPLKYLYPNIDKDHAFGKYYSRPKEAPEPMELDGPKGTGYIKTELISVSEVH

Target: tSTATcc-N460H (UniProt P42224 132-713, N460H;A656C;N658C)
Sequence (P42224 132-713 N460H/A656C/N658C): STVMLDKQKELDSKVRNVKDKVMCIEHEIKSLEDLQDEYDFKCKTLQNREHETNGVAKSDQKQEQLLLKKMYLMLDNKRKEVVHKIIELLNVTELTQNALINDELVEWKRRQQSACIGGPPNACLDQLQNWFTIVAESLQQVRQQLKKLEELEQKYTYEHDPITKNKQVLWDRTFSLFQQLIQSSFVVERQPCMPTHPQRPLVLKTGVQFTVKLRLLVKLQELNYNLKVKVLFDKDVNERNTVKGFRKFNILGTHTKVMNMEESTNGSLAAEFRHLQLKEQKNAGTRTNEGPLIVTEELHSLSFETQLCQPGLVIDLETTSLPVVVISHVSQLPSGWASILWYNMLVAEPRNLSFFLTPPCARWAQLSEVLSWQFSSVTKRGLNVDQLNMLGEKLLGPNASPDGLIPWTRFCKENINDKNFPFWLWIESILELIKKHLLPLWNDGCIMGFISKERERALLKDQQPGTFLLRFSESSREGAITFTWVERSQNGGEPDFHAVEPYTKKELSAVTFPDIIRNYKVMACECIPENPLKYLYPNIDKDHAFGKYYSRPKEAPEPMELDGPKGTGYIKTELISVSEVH
Test: Spec-seq

Binder	binding signal
B1	1.8 kT (ddG vs 2C_GAS)
B2	1.7 kT (ddG vs 2C_GAS)
B3	1.8 kT (ddG vs 2C_GAS)
B4	1.7 kT (ddG vs 2C_GAS)
B5	1.6 kT (ddG vs 2C_GAS)

Target: tSTATcc (truncated STAT1, C-C dimer) (UniProt P42224 132-713, A656C;N658C)
Test: Spec-seq

Binder	binding signal
B1	1.6 kT (ddG vs 2C_GAS)
B2	1.9 kT (ddG vs 2C_GAS)
B3	1.5 kT (ddG vs 2C_GAS)
B4	1.7 kT (ddG vs 2C_GAS)
B5	1.6 kT (ddG vs 2C_GAS)

Target: the molecule itself
Test: non-reducing SDS-PAGE

Binder	stoichiometry N
B6	2
